Target: 1433b_human YWHAB (UniProt P31946)
Sequence of UniProt P31946 (P31946 whole entry): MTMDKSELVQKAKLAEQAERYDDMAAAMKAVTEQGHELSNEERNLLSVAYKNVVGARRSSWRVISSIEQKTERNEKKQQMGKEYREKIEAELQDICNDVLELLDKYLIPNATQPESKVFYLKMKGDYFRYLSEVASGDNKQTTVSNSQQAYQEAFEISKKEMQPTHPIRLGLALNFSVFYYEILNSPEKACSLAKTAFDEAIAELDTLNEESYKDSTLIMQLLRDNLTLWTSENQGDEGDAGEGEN

Dual specificity tyrosine-phosphorylation-regulated kinase 1A (Homo sapiens) (from UniProt Q13627-2) S520A
effect of a mutation on the interaction: decreasing interaction

— IntAct's records for PubMed 17229891
